{
  "source": "patent US11604185B2",
  "about": "(priority 2007, dated 2023)",
  "key": {"[1]": {"system": "BoNT/A holotoxin, complex or the non-toxic LCs", "type": "biochemical, Clostridium botulinum"}, "[2]": {"biological_target": "T1, BoNT/A complex (Clostridium botulinum, UniProt P0DPI1)", "type": "biochemical"}, "[3]": {"biological_target": "BoNT/A light chain (Clostridium botulinum, UniProt P0DPI0)", "sequence (P0DPI0 2-448 limits assumed)": "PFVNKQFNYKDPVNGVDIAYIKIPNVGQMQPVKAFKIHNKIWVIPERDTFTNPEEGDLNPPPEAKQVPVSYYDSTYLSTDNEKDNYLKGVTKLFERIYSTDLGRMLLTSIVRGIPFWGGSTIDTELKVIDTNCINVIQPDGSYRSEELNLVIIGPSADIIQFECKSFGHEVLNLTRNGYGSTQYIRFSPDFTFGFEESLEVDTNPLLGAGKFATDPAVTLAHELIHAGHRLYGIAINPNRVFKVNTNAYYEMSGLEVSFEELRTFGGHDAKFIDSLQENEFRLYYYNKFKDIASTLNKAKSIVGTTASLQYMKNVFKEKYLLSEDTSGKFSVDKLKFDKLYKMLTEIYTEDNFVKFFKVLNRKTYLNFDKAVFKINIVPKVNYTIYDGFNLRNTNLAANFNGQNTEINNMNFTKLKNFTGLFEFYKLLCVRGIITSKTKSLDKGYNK"}, "[4]": {"biological_target": "T1, BoNT/A complex"}, "[5]": {"biological_target": "T2, Trypsin (Sus scrofa, UniProt P00761)", "type": "biochemical"}, "[6]": {"system": "BoNT/A subtypes A1 to A5", "type": "biochemical, Clostridium botulinum"}, "[7]": {"biological_target": "Thermolysin (Bacillus thermoproteolyticus, UniProt P00800)"}, "[8]": {"biological_target": "Proteinase K (Parengyodontium album, UniProt P06873)", "type": "biochemical"}, "[9]": {"biological_target": "T2, Trypsin", "type": "biochemical", "remark": "listed apart in the source"}, "[10]": {"biological_target": "BoNT/B (Clostridium botulinum, UniProt P10844)"}},
  "note": "Where no end group is shown, it is not given here. [ ]: non-standard residue; d: D form. The star is where a group is joined. 5FAM = O=C1OC2(c3ccc(O)cc3Oc3cc(O)ccc32)c2ccc(C(=O)*)cc21; Dabcyl = CN(C)c1ccc(N=Nc2ccc(C(=O)*)cc2)cc1; Nle = CCCC[C@H](N)C(=O)O",
  "data": [
    {"molecule": "5FAM-KIDEANQRATK(Dabcyl)[Nle]-NH2 [SEQ ID NO: 14]", "values": [
      {"measurement": "cleavable by BoNT/A holotoxin, complex or non-toxic LCs alone", "setting": "[1]", "value": "can be cleaved"}
    ]},
    {"molecule": "c1ccc(CN(CCN(Cc2ccccn2)Cc2ccccn2)Cc2ccccn2)nc1", "note": "[TPEN, N,N,N′,N′-Tetrakis (2-pyridylmethyl) ethylenediamine, reference compound]", "values": [
      {"measurement": "effect on BoNT metalloprotease activity", "setting": "[2]", "value": "suppressed BoNT metalloprotease activity"}
    ]},
    {"molecule": "Fam-K[5-Fam]IDEANQRATK[DABCYL]Nle-amide [SEQ ID NO: 13]", "values": [
      {"measurement": "cleavable by BoNT/A holotoxin, complex or non-toxic LCs alone", "setting": "[1]", "value": "can be cleaved"}
    ]},
    {"molecule": "K(5FAM)IDEANQRATK(Dabcyl)[Nle]-NH2 [#201]", "values": [
      {"measurement": "cleavable by BoNT/A holotoxin, complex or non-toxic LCs alone", "setting": "[1]", "value": "can be cleaved"}
    ]},
    {"molecule": "K[5FAM]-IDEANQRATK[DABCYL]-Hex-CONH2 [#204]", "values": [
      {"measurement": "cleavage in microcolumn ALISSA", "setting": "[3]", "value": "does not cleave the control peptide"}
    ]},
    {"molecule": "[4-Mu]TRIDEANQRATK[DABCYL] ({4‑Mu}-TRIDEANQRATK; not fully specified (residue 12); also: DABCYL label at C-terminal K, side chain or terminus not clear) [#111]", "values": [
      {"measurement": "cleavage by BoNT/A complex", "setting": "[4]", "value": "not by BoNT/A complex"},
      {"measurement": "cleavage by trypsin", "setting": "[5]", "value": "cleaved by trypsin"}
    ]},
    {"molecule": "[4-Mu]TRIDEANQRATK[DABCYL]-Hex ({4‑Mu}-TRIDEANQRATK; not fully specified (residue 12, C-terminus); also: DABCYL label and hexyl (-Hex) at C-terminal K, placement not clear) [#113]", "values": [
      {"measurement": "cleaved by BoNT/A subtypes (recombinant LCs)", "setting": "[6]", "value": "None"},
      {"measurement": "cleavage by BoNT/A complex", "setting": "[4]", "value": "not by BoNT/A complex"},
      {"measurement": "Km", "setting": "[7]", "value": "6.45 ± 0.8", "unit": "µM"},
      {"measurement": "kcat", "setting": "[7]", "value": "14.66 ± 0.71", "unit": "s⁻¹"},
      {"measurement": "Km", "setting": "[8]", "value": "4.87 ± 0.96", "unit": "µM"},
      {"measurement": "kcat", "setting": "[8]", "value": "30.64 ± 2.17", "unit": "s⁻¹"},
      {"measurement": "cleavage by trypsin", "setting": "[5]", "value": "cleaved by trypsin"},
      {"measurement": "Km", "setting": "[9]", "value": "13.3 ± 2.7", "unit": "µM"},
      {"measurement": "kcat", "setting": "[9]", "value": "83.90 ± 8.35", "unit": "s⁻¹"}
    ]},
    {"molecule": "[5-Fam]TRIDEANQRATK[DABCYL] (5FAM-TRIDEANQRATK; not fully specified (residue 12); also: DABCYL label at C-terminal K, side chain or terminus not clear) [#110]", "values": [
      {"measurement": "cleavage by BoNT/A complex", "setting": "[4]", "value": "not by BoNT/A complex"},
      {"measurement": "cleavage by trypsin", "setting": "[5]", "value": "cleaved by trypsin"}
    ]},
    {"molecule": "[5-Fam]TRIDEANQRATK[DABCYL]-Hex (5FAM-TRIDEANQRATK; not fully specified (residue 12, C-terminus); also: DABCYL label and hexyl (-Hex) at C-terminal K, placement not clear) [#112]", "values": [
      {"measurement": "cleaved by BoNT/A subtypes (recombinant LCs)", "setting": "[6]", "value": "None"},
      {"measurement": "cleavage upon addition of increasing concentrations of BoNT/A complex", "setting": "[2]", "value": "only little cleavage"},
      {"measurement": "cleavage by BoNT/A complex", "setting": "[4]", "value": "not by BoNT/A complex"},
      {"measurement": "cleavage by BoNT/A serotype", "setting": "[4]", "value": "not cleaved"},
      {"measurement": "Km", "setting": "[7]", "value": "3.58 ± 0.76", "unit": "µM"},
      {"measurement": "kcat", "setting": "[7]", "value": "24.26 ± 1.72", "unit": "s⁻¹"},
      {"measurement": "Km", "setting": "[8]", "value": "3.37 ± 0.67", "unit": "µM"},
      {"measurement": "kcat", "setting": "[8]", "value": "50.73 ± 3.28", "unit": "s⁻¹"},
      {"measurement": "cleavage by trypsin", "setting": "[5]", "value": "cleaved by trypsin"},
      {"measurement": "Km", "setting": "[9]", "value": "3.75 ± 0.79", "unit": "µM"},
      {"measurement": "kcat", "setting": "[9]", "value": "58.72 ± 4.17", "unit": "s⁻¹"},
      {"measurement": "cleavage by BoNT/B serotype", "setting": "[10]", "value": "not cleaved"}
    ]}
  ]
}
